Test results taken from patent publication US20200308288A1 (OSE IMMUNOTHERAPEUTICS, published 2020).

T1: recombinant hCD127 (Sino Biologicals, reference 10975-H08H) (human, UniProt P16871 21-239)
T1 construct: also called rCD127; CD127 protein
T1 chain: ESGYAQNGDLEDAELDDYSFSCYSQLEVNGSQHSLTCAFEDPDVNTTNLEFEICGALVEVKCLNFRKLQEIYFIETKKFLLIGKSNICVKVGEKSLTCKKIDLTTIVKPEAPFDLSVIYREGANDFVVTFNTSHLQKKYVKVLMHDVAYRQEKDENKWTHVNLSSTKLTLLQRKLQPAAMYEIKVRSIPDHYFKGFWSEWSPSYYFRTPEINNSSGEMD

B1: Effi3-VH3VL4 (antibody, human IgG1, kappa, V domains shown)
VH: AVQLVESGGGLVQPGGSLKITCAASGFTFTNAAMYWVRQAPGKGLEWVARIRTKANNYATYYADSVKGRFTISRDDSKSTVYLQMDSVKTEDTATYYCIVVVLTTTRDYFDYWGQGVLVTVSS
VL: DIVLTQSPSSLPVTPGEPASISCRSSQDLLTVKGITSLYWFLQKPGQSPKLLIYRMSNRDSGVPDRFSGSGSGTDFTLKISRVEAEDVGTYYCAQFLEYPHTFGAGTKLELKR
notes: Humanized from rat MD707-3; also called Effi3 H3L4; VHvar3+VLvar4
B2: Effi3-VH3VL3 (antibody, human IgG1, kappa, V domains shown)
VH: AVQLVESGGGLVQPGGSLKITCAASGFTFTNAAMYWVRQAPGKGLEWVARIRTKANNYATYYADSVKGRFTISRDDSKSTVYLQMDSVKTEDTATYYCIVVVLTTTRDYFDYWGQGVLVTVSS
VL: DIVLTQSPSSLPVTPGEPASISCRSSQSLLTVKGITSLYWFLQKPGQSPKLLIYRMSNRDSGVPDRFSGSGSETDFTLKISRVEAEDVGTYYCAQFLEYPHTFGAGTKLELKR
notes: Humanized from rat MD707-3; They are built here from the variable and constant entries so that the signal peptide is left out; also called Effi3 H3L3; VHvar3+VLvar3
B3: MD707-3 (antibody, V domains shown)
VH: AVHLVESGGGLVQPKESLKISCAASGFTFSNAAMYWVRQAPGKGLEWVARIRTKANNYATYYAESVKGRFTISRDDSKSMVYLQMDNVKTDDTAMYYCIVVVLTTTRDYFDYWGQGVMVTVSS
VL: DIVLTQAPLSVSVTPGESASISCRSSQSLLTVKGITSLYWFLQKPGKSPQLLIYRMSNLASGVPDRFRGSGSETDFTLKISKVETEDVGVYYCAQFLEYPHTFGAGTKLELKR
notes: Rat anti-human CD127 antibody; also called MD707-3 chimeric antibody; MD707-3 mAb

What was measured:
[1] = biological target: T1, recombinant hCD127 (Sino Biologicals, …); assay: ELISA, recombinant hCD127 immobilised at 1 µg/ml, purified antibody
Experimental: The binding activity of the anti hCD127 antibody was assessed by ELISA (Enzyme-linked immunosorbent assay). For the ELISA assay, recombinant hCD127 (Sino Biologicals, Beijing, China; reference 10975-H08H) was immobilized on plastic at 1μg/ml and purified antibody were added to measure binding.

[2] = biological target: T1, recombinant hCD127 (Sino Biologicals, …); assay: ELISA on immobilised recombinant hCD127 (1 µg/ml) after storage under different conditions
Experimental: Humanized Effi3 antibody (clone VH3VL4) was incubated at 4° C., 37° C., at −80° C. or at room Temperature for 28 days. The binding activity was tested by ELISA assay, recombinant hCD127 (Sino Biologicals, Beijing, China; reference 10975-H08H) was immobilized on plastic at 1 μg/ml and dilutions of supernatant were added to measure binding. […] Increase doses of Mabs were added to measure binding.

Row | Binder | EC50 [1] [ng/mL] | EC50 (read off the curve) [2] [ng/mL]
1 | B1 | 4 | ~6
2 | B2 | 4 | –
3 | B3 | 3.4 | –
